Assay results: US20230212549A1 (3B PHARMACEUTICALS, published 2023)
Numbered stars: 1 amine (or outer) side, 2 acyl side, 3 side chain; on linkers, the order of the positions; unused ones are H or OH. Bridge positions count the residues as written; N and C are the ends. Square brackets hold non-standard residues; d marks the D form. Primed or numbered codes have the meaning given here. * marks the point of attachment. Ttds″ = 1,13-diamino-4,7,10-trioxatridecan-succinamic acid spacer, O=C(CCC(=O)[*:2])NCCCOCCOCCOCCCN[*:1]; DOTA = O=C(O)CN1CCN(CC(=O)O)CCN(CC(=O)*)CCN(CC(=O)O)CC1; mXylylene = c1cc(C[*:1])cc(C[*:2])c1; NMeF = CN[C@@H](Cc1ccccc1)C(=O)O; αMeF = C[C@](N)(Cc1ccccc1)C(=O)O; 4Pal = N[C@@H](Cc1ccncc1)C(=O)O; Tic = O=C(O)[C@@H]1Cc2ccccc2CN1; 2Thi = N[C@@H](Cc1cccs1)C(=O)O; Aic = NC1(C(=O)O)Cc2ccccc2C1; Hexanoyl = CCCCCC(=O)*

Experiments:
[1] = molecular target: Recombinant human FAP (R&D systems, #3715-SE) (human, UniProt Q12884 26-760); assay: cell-based or functional assay
[2] = molecular target: T1, fibroblast activation protein (FAP) on FAP-expressing human WI-38 fibroblasts (human, UniProt Q12884 1-760); assay: competitive FACS, WI-38 cells, vs Cy5 tracer m3; A = pIC50 >8.0
T1 construct: also called human FAP

Row | Binder | pIC50 Category (Activity) [1] [pIC50] | pIC50 Category (FACS) [2] [pIC50]
1 | Ac-MCPPTEFCDH[NMeF]RD-NH2 (linker 2-8 via mXylylene; SMILES CSCC[C@H](NC(C)=O)C(=O)N[C@H]1CSCc2cccc(c2)CSC[C@@H](C(=O)N[C@@H](CC(=O)O)C(=O)N[C@@H](Cc2c[nH]cn2)C(=O)N(C)[C@@H](Cc2ccccc2)C(=O)N[C@@H](CCCNC(=N)N)C(=O)N[C@@H](CC(=O)O)C(N)=O)NC(=O)[C@H](Cc2ccccc2)NC(=O)[C@H](CCC(=O)O)NC(=O)[C@H]([C@@H](C)O)NC(=O)[C@@H]2CCCN2C(=O)[C@@H]2CCCN2C1=O, also called 3BP-3188) [Ac-Met-[Cys(3MeBn)-Pro-Pro-Thr-Glu-Phe-Cys]-Asp-His-Nmf-Arg-Asp-NH2] | > 8 | > 8
2 | Ac-MCPPTEFCDHFR-NH2 (linker 2-8 via mXylylene; SMILES CSCC[C@H](NC(C)=O)C(=O)N[C@H]1CSCc2cccc(c2)CSC[C@@H](C(=O)N[C@@H](CC(=O)O)C(=O)N[C@@H](Cc2c[nH]cn2)C(=O)N[C@@H](Cc2ccccc2)C(=O)N[C@@H](CCCNC(=N)N)C(N)=O)NC(=O)[C@H](Cc2ccccc2)NC(=O)[C@H](CCC(=O)O)NC(=O)[C@H]([C@@H](C)O)NC(=O)[C@@H]2CCCN2C(=O)[C@@H]2CCCN2C1=O, also called 3BP-3200) [Ac-Met-[Cys(3MeBn)-Pro-Pro-Thr-Glu-Phe-Cys]-Asp-His-Phe-Arg-NH2] | > 8 | > 8
3 | Ac-MCPPTEFCDHFR[dD]-NH2 (linker 2-8 via mXylylene; SMILES CSCC[C@H](NC(C)=O)C(=O)N[C@H]1CSCc2cccc(c2)CSC[C@@H](C(=O)N[C@@H](CC(=O)O)C(=O)N[C@@H](Cc2c[nH]cn2)C(=O)N[C@@H](Cc2ccccc2)C(=O)N[C@@H](CCCNC(=N)N)C(=O)N[C@H](CC(=O)O)C(N)=O)NC(=O)[C@H](Cc2ccccc2)NC(=O)[C@H](CCC(=O)O)NC(=O)[C@H]([C@@H](C)O)NC(=O)[C@@H]2CCCN2C(=O)[C@@H]2CCCN2C1=O, also called 3BP-3213) [Ac-Met-[Cys(3MeBn)-Pro-Pro-Thr-Glu-Phe-Cys]-Asp-His-Phe-Arg-asp-NH2] | > 8 | > 8
4 | Ac-MCPPTEFCDH[Aic]RD-NH2 (linker 2-8 via mXylylene; SMILES CSCC[C@H](NC(C)=O)C(=O)N[C@H]1CSCc2cccc(c2)CSC[C@@H](C(=O)N[C@@H](CC(=O)O)C(=O)N[C@@H](Cc2c[nH]cn2)C(=O)NC2(C(=O)N[C@@H](CCCNC(=N)N)C(=O)N[C@@H](CC(=O)O)C(N)=O)Cc3ccccc3C2)NC(=O)[C@H](Cc2ccccc2)NC(=O)[C@H](CCC(=O)O)NC(=O)[C@H]([C@@H](C)O)NC(=O)[C@@H]2CCCN2C(=O)[C@@H]2CCCN2C1=O, also called 3BP-3190) [Ac-Met-[Cys(3MeBn)-Pro-Pro-Thr-Glu-Phe-Cys]-Asp-His-Aic-Arg-Asp-NH2] | > 8 | > 8
5 | Hexanoyl-CPPTEFCDH[dF]R[Ttds″]K(DOTA)-NH2 (linker 1-7 via mXylylene; SMILES CCCCCC(=O)N[C@H]1CSCc2cccc(c2)CSC[C@@H](C(=O)N[C@@H](CC(=O)O)C(=O)N[C@@H](Cc2c[nH]cn2)C(=O)N[C@H](Cc2ccccc2)C(=O)N[C@@H](CCCNC(=N)N)C(=O)NCCCOCCOCCOCCCNC(=O)CCC(=O)N[C@@H](CCCCNC(=O)CN2CCN(CC(=O)O)CCN(CC(=O)O)CCN(CC(=O)O)CC2)C(N)=O)NC(=O)[C@H](Cc2ccccc2)NC(=O)[C@H](CCC(=O)O)NC(=O)[C@H]([C@@H](C)O)NC(=O)[C@@H]2CCCN2C(=O)[C@@H]2CCCN2C1=O, also called 3BP-3276) [Hex-[Cys(3MeBn)-Pro-Pro-Thr-Glu-Phe-Cys]-Asp-His-phe-Arg-Ttds-Lys(DOTA)-NH2] | > 8 | > 8
6 | Ac-MCPPTEFCDH[αMeF]RD-NH2 (linker 2-8 via mXylylene; SMILES CSCC[C@H](NC(C)=O)C(=O)N[C@H]1CSCc2cccc(c2)CSC[C@@H](C(=O)N[C@@H](CC(=O)O)C(=O)N[C@@H](Cc2c[nH]cn2)C(=O)N[C@@](C)(Cc2ccccc2)C(=O)N[C@@H](CCCNC(=N)N)C(=O)N[C@@H](CC(=O)O)C(N)=O)NC(=O)[C@H](Cc2ccccc2)NC(=O)[C@H](CCC(=O)O)NC(=O)[C@H]([C@@H](C)O)NC(=O)[C@@H]2CCCN2C(=O)[C@@H]2CCCN2C1=O, also called 3BP-3203) [Ac-Met-[Cys(3MeBn)-Pro-Pro-Thr-Glu-Phe-Cys]-Asp-His-Amf-Arg-Asp-NH2] | > 8 | > 8
7 | Ac-CPPTEFCDHFRD-NH2 (linker 1-7 via mXylylene; SMILES CC(=O)N[C@H]1CSCc2cccc(c2)CSC[C@@H](C(=O)N[C@@H](CC(=O)O)C(=O)N[C@@H](Cc2c[nH]cn2)C(=O)N[C@@H](Cc2ccccc2)C(=O)N[C@@H](CCCNC(=N)N)C(=O)N[C@@H](CC(=O)O)C(N)=O)NC(=O)[C@H](Cc2ccccc2)NC(=O)[C@H](CCC(=O)O)NC(=O)[C@H]([C@@H](C)O)NC(=O)[C@@H]2CCCN2C(=O)[C@@H]2CCCN2C1=O, also called 3BP-3202) [Ac-[Cys(3MeBn)-Pro-Pro-Thr-Glu-Phe-Cys]-Asp-His-Phe-Arg-Asp-NH2] | > 8 | > 8
8 | Ac-MCPPTEFCDHXRD-NH2 (linker 2-8 via mXylylene; not fully specified (residue 11); printed as Ac-Met-[Cys(3MeBn)-Pro-Pro-Thr-Glu-Phe-Cys]-Asp-His-Mpa-Arg-Asp-NH2, also called 3BP-3192) [Ac-Met-[Cys(3MeBn)-Pro-Pro-Thr-Glu-Phe-Cys]-Asp-His-Mpa-Arg-Asp-NH2] | > 8 | > 8
9 | Ac-MCPPTE[2Thi]CDHFRD-NH2 (linker 2-8 via mXylylene; SMILES CSCC[C@H](NC(C)=O)C(=O)N[C@H]1CSCc2cccc(c2)CSC[C@@H](C(=O)N[C@@H](CC(=O)O)C(=O)N[C@@H](Cc2c[nH]cn2)C(=O)N[C@@H](Cc2ccccc2)C(=O)N[C@@H](CCCNC(=N)N)C(=O)N[C@@H](CC(=O)O)C(N)=O)NC(=O)[C@H](Cc2cccs2)NC(=O)[C@H](CCC(=O)O)NC(=O)[C@H]([C@@H](C)O)NC(=O)[C@@H]2CCCN2C(=O)[C@@H]2CCCN2C1=O, also called 3BP-3193) [Ac-Met-[Cys(3MeBn)-Pro-Pro-Thr-Glu-Thi-Cys]-Asp-His-Phe-Arg-Asp-NH2] | > 8 | > 8
10 | Ac-MCPPTEFCDH[4Pal]RD-NH2 (linker 2-8 via mXylylene, also called 3BP-3191) [Ac-Met-[Cys(3MeBn)-Pro-Pro-Thr-Glu-Phe-Cys]-Asp-His-Ppa-Arg-Asp-NH2] | > 8 | > 8
11 | Ac-MCPPTEFCD[dH]FRD-NH2 (linker 2-8 via mXylylene; SMILES CSCC[C@H](NC(C)=O)C(=O)N[C@H]1CSCc2cccc(c2)CSC[C@@H](C(=O)N[C@@H](CC(=O)O)C(=O)N[C@H](Cc2c[nH]cn2)C(=O)N[C@@H](Cc2ccccc2)C(=O)N[C@@H](CCCNC(=N)N)C(=O)N[C@@H](CC(=O)O)C(N)=O)NC(=O)[C@H](Cc2ccccc2)NC(=O)[C@H](CCC(=O)O)NC(=O)[C@H]([C@@H](C)O)NC(=O)[C@@H]2CCCN2C(=O)[C@@H]2CCCN2C1=O, also called 3BP-3210) [Ac-Met-[Cys(3MeBn)-Pro-Pro-Thr-Glu-Phe-Cys]-Asp-his-Phe-Arg-Asp-NH2] | > 8 | > 8
12 | Ac-MCPPTEFCDHF[dR]D-NH2 (linker 2-8 via mXylylene; SMILES CSCC[C@H](NC(C)=O)C(=O)N[C@H]1CSCc2cccc(c2)CSC[C@@H](C(=O)N[C@@H](CC(=O)O)C(=O)N[C@@H](Cc2c[nH]cn2)C(=O)N[C@@H](Cc2ccccc2)C(=O)N[C@H](CCCNC(=N)N)C(=O)N[C@@H](CC(=O)O)C(N)=O)NC(=O)[C@H](Cc2ccccc2)NC(=O)[C@H](CCC(=O)O)NC(=O)[C@H]([C@@H](C)O)NC(=O)[C@@H]2CCCN2C(=O)[C@@H]2CCCN2C1=O, also called 3BP-3212) [Ac-Met-[Cys(3MeBn)-Pro-Pro-Thr-Glu-Phe-Cys]-Asp-His-Phe-arg-Asp-NH2] | > 8 | > 8
13 | Ac-MCPPTEFCDH[dF]RD-NH2 (linker 2-8 via mXylylene; SMILES CSCC[C@H](NC(C)=O)C(=O)N[C@H]1CSCc2cccc(c2)CSC[C@@H](C(=O)N[C@@H](CC(=O)O)C(=O)N[C@@H](Cc2c[nH]cn2)C(=O)N[C@H](Cc2ccccc2)C(=O)N[C@@H](CCCNC(=N)N)C(=O)N[C@@H](CC(=O)O)C(N)=O)NC(=O)[C@H](Cc2ccccc2)NC(=O)[C@H](CCC(=O)O)NC(=O)[C@H]([C@@H](C)O)NC(=O)[C@@H]2CCCN2C(=O)[C@@H]2CCCN2C1=O, also called 3BP-3211) [Ac-Met-[Cys(3MeBn)-Pro-Pro-Thr-Glu-Phe-Cys]-Asp-His-phe-Arg-Asp-NH2] | > 8 | > 8
14 | Ac-MCPPTEFCDH[Tic]RD-NH2 (linker 2-8 via mXylylene; SMILES CSCC[C@H](NC(C)=O)C(=O)N[C@H]1CSCc2cccc(c2)CSC[C@@H](C(=O)N[C@@H](CC(=O)O)C(=O)N[C@@H](Cc2c[nH]cn2)C(=O)N2Cc3ccccc3C[C@H]2C(=O)N[C@@H](CCCNC(=N)N)C(=O)N[C@@H](CC(=O)O)C(N)=O)NC(=O)[C@H](Cc2ccccc2)NC(=O)[C@H](CCC(=O)O)NC(=O)[C@H]([C@@H](C)O)NC(=O)[C@@H]2CCCN2C(=O)[C@@H]2CCCN2C1=O, also called 3BP-3189) [Ac-Met-[Cys(3MeBn)-Pro-Pro-Thr-Glu-Phe-Cys]-Asp-His-Tic-Arg-Asp-NH2] | > 8 | > 8
15 | Hexanoyl-CPPTEFCDH[NMeF]R[Ttds″]K(DOTA)-NH2 (linker 1-7 via mXylylene; SMILES CCCCCC(=O)N[C@H]1CSCc2cccc(c2)CSC[C@@H](C(=O)N[C@@H](CC(=O)O)C(=O)N[C@@H](Cc2c[nH]cn2)C(=O)N(C)[C@@H](Cc2ccccc2)C(=O)N[C@@H](CCCNC(=N)N)C(=O)NCCCOCCOCCOCCCNC(=O)CCC(=O)N[C@@H](CCCCNC(=O)CN2CCN(CC(=O)O)CCN(CC(=O)O)CCN(CC(=O)O)CC2)C(N)=O)NC(=O)[C@H](Cc2ccccc2)NC(=O)[C@H](CCC(=O)O)NC(=O)[C@H]([C@@H](C)O)NC(=O)[C@@H]2CCCN2C(=O)[C@@H]2CCCN2C1=O, also called 3BP-3275) [Hex-[Cys(3MeBn)-Pro-Pro-Thr-Glu-Phe-Cys]-Asp-His-Nmf-Arg-Ttds-Lys(DOTA)-NH2] | > 8 | > 8
